B1: Monovalent EpCAM (GG01_VH x GG05_VL) (antibody, IgG1, V domains shown)
VH: QVQLVQSGSELKKPGASVKVSCKASGYTFTNYGMNWVRQAPGQGLEWMGWINTYTGESTYAQGFTGRFVFSLDTSVSTAYLQISSLKAEDTAVYFCARFAIKGDYWGQGTLVTVSS
VL: DIVMTQSPLSLPVTPGEPASISCRSSQGINNYLYWYLQKPGQSPQLLIYQMSNRASGVPDRFSGSGSGTDFTLKISRVEAEDVGVYYCAQNLEIPRTFGQGTKLEIK
notes: one-armed hu IgG1 PG-LALA, VH/VL-crossed Fab on Fc hole plus empty Fc knob; from supernatant
B2: Monovalent EpCAM (GG02_VH x GG05_VL) (antibody, IgG1, V domains shown)
VH: QVQLVQSGAEVKKPGASVKVSCKASGYTFTNYGMNWVRQAPGQRLEWMGWINTYTGESTYSQKFQGRVTITRDTSASTAYMELSSLRSEDTAVYFCARFAIKGDYWGQGTLVTVSS
VL: DIVMTQSPLSLPVTPGEPASISCRSSQGINNYLYWYLQKPGQSPQLLIYQMSNRASGVPDRFSGSGSGTDFTLKISRVEAEDVGVYYCAQNLEIPRTFGQGTKLEIK
notes: as for B1
B3: Monovalent EpCAM (GG01_VH x GG06_VL) (antibody, IgG1, V domains shown)
VH: QVQLVQSGSELKKPGASVKVSCKASGYTFTNYGMNWVRQAPGQGLEWMGWINTYTGESTYAQGFTGRFVFSLDTSVSTAYLQISSLKAEDTAVYFCARFAIKGDYWGQGTLVTVSS
VL: DIQMTQSPSSLSASVGDRVTITCRASQSILHSQGITYLYWYQQKPGKAPKLLIYQMSNLQSGVPSRFSGSGSGTDFTLTISSLQPEDFATYYCAQNLEIPRTFGQGTKLEIK
notes: as for B1
B4: Monovalent EpCAM (GG07_VH x GG06_VL) (antibody, IgG1, V domains shown)
VH: QVQLVQSGSELKKPGASVKVSCKASGYTFTNYGMNWVRQAPGQGLEWMGWINTYTGESTYAQGFTGRFVFSLDTSVSTAYLQISSLKAEDTAVYFCARFARSGDYWGQGTLVTVSS
VL: DIQMTQSPSSLSASVGDRVTITCRASQSILHSQGITYLYWYQQKPGKAPKLLIYQMSNLQSGVPSRFSGSGSGTDFTLTISSLQPEDFATYYCAQNLEIPRTFGQGTKLEIK
notes: as for B1
B5: Monovalent EpCAM (GG03_VH x GG05_VL) (antibody, IgG1, V domains shown)
VH: QVQLVQSGAEVKKPGASVKVSCKASGYTFTNYGMNWVRQAPGQRLEWMGWINTYTGESTYSQKFQGRVTITLDTSASTAYMELSSLRSEDTAVYFCARFAIKGDYWGQGTLVTVSS
VL: DIVMTQSPLSLPVTPGEPASISCRSSQGINNYLYWYLQKPGQSPQLLIYQMSNRASGVPDRFSGSGSGTDFTLKISRVEAEDVGVYYCAQNLEIPRTFGQGTKLEIK
notes: as for B1
B6: Monovalent EpCAM (GG06_VH x GG05_VL) (antibody, IgG1, V domains shown)
VH: QVQLVQSGSELKKPGASVKVSCKASGYTFTNYGMNWVRQAPGQGLEWMGWINTYTGQSTYAQGFTGRFVFSLDTSVSTAYLQISSLKAEDTAVYFCARFAIKGDYWGQGTLVTVSS
VL: DIVMTQSPLSLPVTPGEPASISCRSSQGINNYLYWYLQKPGQSPQLLIYQMSNRASGVPDRFSGSGSGTDFTLKISRVEAEDVGVYYCAQNLEIPRTFGQGTKLEIK
notes: as for B1
B7: Monovalent EpCAM (GG07_VH x GG05_VL) (antibody, IgG1, V domains shown)
VH: QVQLVQSGSELKKPGASVKVSCKASGYTFTNYGMNWVRQAPGQGLEWMGWINTYTGESTYAQGFTGRFVFSLDTSVSTAYLQISSLKAEDTAVYFCARFARSGDYWGQGTLVTVSS
VL: DIVMTQSPLSLPVTPGEPASISCRSSQGINNYLYWYLQKPGQSPQLLIYQMSNRASGVPDRFSGSGSGTDFTLKISRVEAEDVGVYYCAQNLEIPRTFGQGTKLEIK
notes: as for B1
B8: Monovalent EpCAM (GG06_VH x GG06_VL) (antibody, IgG1, V domains shown)
VH: QVQLVQSGSELKKPGASVKVSCKASGYTFTNYGMNWVRQAPGQGLEWMGWINTYTGQSTYAQGFTGRFVFSLDTSVSTAYLQISSLKAEDTAVYFCARFAIKGDYWGQGTLVTVSS
VL: DIQMTQSPSSLSASVGDRVTITCRASQSILHSQGITYLYWYQQKPGKAPKLLIYQMSNLQSGVPSRFSGSGSGTDFTLTISSLQPEDFATYYCAQNLEIPRTFGQGTKLEIK
notes: as for B1
B9: Monovalent EpCAM (GG04_VH x GG01_VL) (antibody, IgG1, V domains shown)
VH: EVQLVQSGAEVKKPGESLKISCKGSGYSFTNYGMNWVRQMPGKGLEWMGWINTYTGESTYSPSFQGQVTISADKSISTAYLQWSSLKASDTAMYFCARFAIKGDYWGQGTLVTVSS
VL: DIVMTQSPLSLPVTPGEPASISCRSSQSLLHSNGITYLYWYLQKPGQSPQLLIYQMSNRASGVPDRFSGSGSGTDFTLKISRVEAEDVGVYYCAQNLEIPRTFGQGTKLEIK
notes: as for B1
B10: Monovalent EpCAM (GG04_VH x GG04_VL) (antibody, IgG1, V domains shown)
VH: EVQLVQSGAEVKKPGESLKISCKGSGYSFTNYGMNWVRQMPGKGLEWMGWINTYTGESTYSPSFQGQVTISADKSISTAYLQWSSLKASDTAMYFCARFAIKGDYWGQGTLVTVSS
VL: DIQMTQSPSSLSASVGDRVTITCRASQSISSYLYWYQQKPGKAPKLLIYQASSLQSGVPSRFSGSGSGTDFTLTISSLQPEDFATYYCAQNLEIPRTFGQGTKLEIK
notes: as for B1
B11: Monovalent EpCAM (GG04_VH x GG03_VL) (antibody, IgG1, V domains shown)
VH: EVQLVQSGAEVKKPGESLKISCKGSGYSFTNYGMNWVRQMPGKGLEWMGWINTYTGESTYSPSFQGQVTISADKSISTAYLQWSSLKASDTAMYFCARFAIKGDYWGQGTLVTVSS
VL: EIVLTQSPGTLSLSPGERATLSCRASQSLLHSNGITYLYWYQQKPGQAPRLLIYQMSNRATGIPDRFSGSGSGTDFTLTISRLEPEDFAVYYCAQNLEIPRTFGQGTKLEIK
notes: as for B1
B12: Monovalent EpCAM (GG05_VH x GG01_VL) (antibody, IgG1, V domains shown)
VH: EVQLVQSGAEVKKPGESLKISCKGSGYSFTQYGMNWVRQMPGKGLEWMGWINTYTGESTYSPSFQGQVTISADKSISTAYLQWSSLKASDTAMYFCARFAIKGDYWGQGTLVTVSS
VL: DIVMTQSPLSLPVTPGEPASISCRSSQSLLHSNGITYLYWYLQKPGQSPQLLIYQMSNRASGVPDRFSGSGSGTDFTLKISRVEAEDVGVYYCAQNLEIPRTFGQGTKLEIK
notes: as for B1
B13: Monovalent EpCAM (GG05_VH x GG03_VL) (antibody, IgG1, V domains shown)
VH: EVQLVQSGAEVKKPGESLKISCKGSGYSFTQYGMNWVRQMPGKGLEWMGWINTYTGESTYSPSFQGQVTISADKSISTAYLQWSSLKASDTAMYFCARFAIKGDYWGQGTLVTVSS
VL: EIVLTQSPGTLSLSPGERATLSCRASQSLLHSNGITYLYWYQQKPGQAPRLLIYQMSNRATGIPDRFSGSGSGTDFTLTISRLEPEDFAVYYCAQNLEIPRTFGQGTKLEIK
notes: as for B1
B14: Monovalent EpCAM (GG02_VH x GG02_VL) (antibody, IgG1, V domains shown)
VH: QVQLVQSGAEVKKPGASVKVSCKASGYTFTNYGMNWVRQAPGQRLEWMGWINTYTGESTYSQKFQGRVTITRDTSASTAYMELSSLRSEDTAVYFCARFAIKGDYWGQGTLVTVSS
VL: DIVMTQSPDSLAVSLGERATINCKSSQSLLHSNGITYLYWYQQKPGQPPKLLIYQASTRESGVPDRFSGSGSGTDFTLTISSLQAEDVAVYYCAQNLEIPRTFGQGTKLEIK
notes: as for B1
B15: Monovalent EpCAM (GG03_VH x GG01_VL) (antibody, IgG1, V domains shown)
VH: QVQLVQSGAEVKKPGASVKVSCKASGYTFTNYGMNWVRQAPGQRLEWMGWINTYTGESTYSQKFQGRVTITLDTSASTAYMELSSLRSEDTAVYFCARFAIKGDYWGQGTLVTVSS
VL: DIVMTQSPLSLPVTPGEPASISCRSSQSLLHSNGITYLYWYLQKPGQSPQLLIYQMSNRASGVPDRFSGSGSGTDFTLKISRVEAEDVGVYYCAQNLEIPRTFGQGTKLEIK
notes: as for B1
B16: Monovalent EpCAM (GG02_VH x GG07_VL) (antibody, IgG1, V domains shown)
VH: QVQLVQSGAEVKKPGASVKVSCKASGYTFTNYGMNWVRQAPGQRLEWMGWINTYTGESTYSQKFQGRVTITRDTSASTAYMELSSLRSEDTAVYFCARFAIKGDYWGQGTLVTVSS
VL: EIVLTQSPGTLSLSPGERATLSCRASQSINNYLYWYQQKPGQAPRLLIYQMSNRATGIPDRFSGSGSGTDFTLTISRLEPEDFAVYYCAQNLEIPRTFGQGTKLEIK
notes: as for B1
B17: Monovalent EpCAM (GG04_VH x GG02_VL) (antibody, IgG1, V domains shown)
VH: EVQLVQSGAEVKKPGESLKISCKGSGYSFTNYGMNWVRQMPGKGLEWMGWINTYTGESTYSPSFQGQVTISADKSISTAYLQWSSLKASDTAMYFCARFAIKGDYWGQGTLVTVSS
VL: DIVMTQSPDSLAVSLGERATINCKSSQSLLHSNGITYLYWYQQKPGQPPKLLIYQASTRESGVPDRFSGSGSGTDFTLTISSLQAEDVAVYYCAQNLEIPRTFGQGTKLEIK
notes: as for B1
B18: Monovalent EpCAM (GG03_VH x GG04_VL) (antibody, IgG1, V domains shown)
VH: QVQLVQSGAEVKKPGASVKVSCKASGYTFTNYGMNWVRQAPGQRLEWMGWINTYTGESTYSQKFQGRVTITLDTSASTAYMELSSLRSEDTAVYFCARFAIKGDYWGQGTLVTVSS
VL: DIQMTQSPSSLSASVGDRVTITCRASQSISSYLYWYQQKPGKAPKLLIYQASSLQSGVPSRFSGSGSGTDFTLTISSLQPEDFATYYCAQNLEIPRTFGQGTKLEIK
notes: as for B1
B19: Monovalent EpCAM (GG05_VH x GG02_VL) (antibody, IgG1, V domains shown)
VH: EVQLVQSGAEVKKPGESLKISCKGSGYSFTQYGMNWVRQMPGKGLEWMGWINTYTGESTYSPSFQGQVTISADKSISTAYLQWSSLKASDTAMYFCARFAIKGDYWGQGTLVTVSS
VL: DIVMTQSPDSLAVSLGERATINCKSSQSLLHSNGITYLYWYQQKPGQPPKLLIYQASTRESGVPDRFSGSGSGTDFTLTISSLQAEDVAVYYCAQNLEIPRTFGQGTKLEIK
notes: as for B1
B20: Monovalent EpCAM (GG03_VH x GG02_VL) (antibody, IgG1, V domains shown)
VH: QVQLVQSGAEVKKPGASVKVSCKASGYTFTNYGMNWVRQAPGQRLEWMGWINTYTGESTYSQKFQGRVTITLDTSASTAYMELSSLRSEDTAVYFCARFAIKGDYWGQGTLVTVSS
VL: DIVMTQSPDSLAVSLGERATINCKSSQSLLHSNGITYLYWYQQKPGQPPKLLIYQASTRESGVPDRFSGSGSGTDFTLTISSLQAEDVAVYYCAQNLEIPRTFGQGTKLEIK
notes: as for B1
B21: Monovalent EpCAM (GG03_VH x GG07_VL) (antibody, IgG1, V domains shown)
VH: QVQLVQSGAEVKKPGASVKVSCKASGYTFTNYGMNWVRQAPGQRLEWMGWINTYTGESTYSQKFQGRVTITLDTSASTAYMELSSLRSEDTAVYFCARFAIKGDYWGQGTLVTVSS
VL: EIVLTQSPGTLSLSPGERATLSCRASQSINNYLYWYQQKPGQAPRLLIYQMSNRATGIPDRFSGSGSGTDFTLTISRLEPEDFAVYYCAQNLEIPRTFGQGTKLEIK
notes: as for B1

We go through 21 molecules from patent US20240368309A1 (Hoffmann-La Roche, published 2024).

As a reminder, the koff is the first-order rate constant of dissociation. Lower therefore signals slow dissociation.

The target in the test is T1, biotinylated monovalent EpCAM-Fc (human EpCAM ECD-Fc knob avi-his paired with Fc hole) (human, UniProt P01857 104-328 = IgG part, biotin on the avi tag (BirA co-expression)).
T1 construct: also called monovalent EpCAM-Fc construct; huEPCAM-Fc-knob (avi-His) + Fc hole (wt)
The test is described as follows: SPR ProteOn XPR36 off-rate, biotinylated monovalent EpCAM-Fc on NLC chip, 50 nM supernatant.
Molecule B1 had a dissociation rate constant (koff) of 0.062 s⁻¹.

As to B2, the koff was 0.00361 s⁻¹.

B3 showed a koff of 0.00412 s⁻¹.

B4 showed a koff of 0.00142 s⁻¹.

Molecule B5 registered a koff of 0.00483 s⁻¹.

B6 registered a koff of 0.00665 s⁻¹.

Molecule B7 had a koff of 0.00491 s⁻¹.

In the case of B8, the koff is 0.00303 s⁻¹.

In the case of B9, the koff was determined as 0.00662 s⁻¹.

Take B10: the koff is 0.0069 s⁻¹.

Regarding B11, the koff is 0.00538 s⁻¹.

In the case of B12, the dissociation rate constant (koff) stood at 0.00545 s⁻¹.

With B13, the koff came to 4.35e-05 s⁻¹.

B14 had a koff of 0.00227 s⁻¹. Against the preceding molecule, the koff is about 52-fold higher.

For the molecule B15, the koff is 0.00255 s⁻¹.

The molecule B16 gave a koff of 0.00303 s⁻¹. This koff and that of the molecule before are within 1.5-fold of each other.

Turning to B17, the koff is 0.00943 s⁻¹.

B18 displayed a koff of 0.00247 s⁻¹.

Consider B19, for which the koff was 0.00783 s⁻¹.

B20: the koff stood at 0.00301 s⁻¹.

B21 came in with a koff of 0.00366 s⁻¹.
